Assay [1] deals with T1, mouse ligand (single-chain IL27) (Mus musculus, UniProt O35228+Q8K3I6).
T1 construct: amino-terminal peptide tag (FLAG in lot A1426F) (N)
T1 sequence (O35228+Q8K3I6 with tags, fused parts or gaps): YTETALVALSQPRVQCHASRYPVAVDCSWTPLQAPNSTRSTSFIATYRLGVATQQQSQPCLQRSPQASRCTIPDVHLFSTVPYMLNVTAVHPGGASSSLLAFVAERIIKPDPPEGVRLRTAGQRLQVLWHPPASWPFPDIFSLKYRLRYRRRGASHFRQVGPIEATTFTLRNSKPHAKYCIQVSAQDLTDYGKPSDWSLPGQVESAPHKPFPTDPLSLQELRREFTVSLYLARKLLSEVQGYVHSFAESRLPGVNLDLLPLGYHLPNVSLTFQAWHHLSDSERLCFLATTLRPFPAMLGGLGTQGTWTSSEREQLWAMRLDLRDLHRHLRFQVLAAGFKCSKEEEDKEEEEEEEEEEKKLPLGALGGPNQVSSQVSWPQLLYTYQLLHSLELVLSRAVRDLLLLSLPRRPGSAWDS
The assay is described as follows: SPR kinetics of soluble receptors with mouse IL27 ligand. The note with it: binding with mouse ligand; gp130 not included. The procedure: Kinetic rate and affinity constant values for the mouse (IL27RAm(mFc1), Example 3) and human (IL27RA-Fc5, Example 4) soluble receptors were obtained by surface plasmon resonance (SPR) using an automated instrument (BIACORE 3000; Biacore International AB, Uppsala, Sweden). The mouse soluble receptor was tested against mouse ligand (lot A1418F), and the human soluble receptor was tested against both mouse (A1426F) and human (A1534F) ligands. For determination of the kinetic rate constants for the receptor-ligand interactions, the gp130 molecule was not included as part of the receptor complex.
The IL27 ligands used in this study were single-chain molecules comprising EBI3 connected by its C-terminus to the N-terminus of IL-27 p28 via a polypeptide linker. Each of the ligands included an amino-terminal peptide tag.
For the mouse IL27RA study, the soluble receptor was captured onto the chip surface by an isotype-specific anti-mouse Fc antibody (obtained from Jackson ImmunoResearch Laboratories, Inc., West Grove, Pa.) covalently immobilized to the chip (BIACORE CM5 chip) using the standard amine coupling protocol specified by the instrument manufacturer. […]
All data were assessed using software provided with the instrument (BIACORE Evaluation software v. 3.2). […]
A general note: In SPR one partner is held on a chip, and binding of the other changes the refractive index at the surface.

Assay [2] relates to acute graft-vs-host disease. Put plainly: Mouse model of acute graft-vs-host disease. It counts as in vivo. How it is done: Efficacy of IL-27 antagonists was assayed in a mouse model of acute graft-vs-host disease (Durie et al., J. Clin. Invest. 94:1333-1338, 1994). Parental mice (C57BL/6; n=12) were euthanized, and their spleens were collected. The pooled spleens were smashed using two glass slides to dissociate splenic cells. Lysis buffer was added to the splenocyte suspension to remove red blood cells. The cells were washed in RPMI 1640 (10% FBS) medium and resuspended in an appropriate amount of PBS to make a cell concentration of 300 million cells/ml. Protein treatments were administered by intraperitoneal injection every other day beginning on day-1 and continuing until day 15. Dexamethasone (DEX) was administered by injection daily on days 0 through 6. On day 0, 75 million donor splenic lymphocytes from B6 mice (250 .micro.l per injection) were injected intravenously into recipient mice (C57BL/6×DBA/2 F1 (BDF1); n=10 per group) mice. Mice were monitored 3 times a week for changes in body weight and any signs of moribundity. Mice that lost >20% of their initial body weight were euthanized. Otherwise, mice were sacrificed 18 days after the cell transfer. Spleens were collected, and a CTL-specific lysis assay using P815 cells was performed as a quantitative measurement of acute GVHD. Furthermore, spleens were stained for T- and B-cell markers, including MHC class I markers (H2^b and H2^d) to look at donor/recipient cell ratio (acute GVHD spleen cells are mostly donor cells). Sera were collected to measure serum level of IgG1, IgG2a, and IgE by ELISA, and cytokine and chemokine levels using a commercially available kit (Luminex Corporation, Austin, Tex.).

Assay [3] has as its target T2, mouse IL-27 (Mus musculus, UniProt O35228+Q8K3I6).
T2 sequence (O35228+Q8K3I6 with tags, fused parts or gaps): T1 sequence (O35228+Q8K3I6 with tags, fused parts or gaps)
The assay is described as follows: IL-27 inhibition of IL-2 production neutralized by IL-27RA Fc. In kind it is cell-based. The procedure: For testing of the soluble receptor, single-chain mouse IL-27 (10 ng/ml) was preincubated for 30 minutes at 37 degrees C. with either IL27RAm(mFc1) (10.0 and 5.0 .micro.g/ml), IL27RA-Fc5, mouse Fc1 protein (10.0 and 5.0 .micro.g/ml), human Fc5 protein (10.0 and 5.0 .micro.g/ml), or no recombinant protein in wells of the anti-CD3 coated plates. 4×10^5 CD4^+ CD62L high cells were added to the wells. Duplicate plates were set up for all experimental conditions. The plates were then cultured at 37 degrees for up to 72 hours. Cell supernatants were collected from one set of plates at 48 hours and from the duplicate set of plates at 72 hours. The supernatants were stored frozen at −80° C.

Where “and” joins values, the source holds several entries; their conditions need not be identical. Identical values can stand only once.

“human IL-27RA-Fc5: human IL27RA extracellular domain (amino acids 1 to 512 of SEQ ID NO:5) fused to Fc5, effector minus human gamma1 Fc; SEQ ID NO:3” had a ka in assay [1] of 8.1e+06 M⁻¹ s⁻¹. Besides, in assay [1], the kd worked out at 0.0018 s⁻¹. In addition, the colon length shortening entry in assay [2] (mouse, in vivo) was “did prevent colon length shortening”. For the same substance, in assay [2] (mouse, in vivo), the splenomegaly result is listed as “did not prevent splenomegaly”. For the same substance, in assay [2] (proteins 100 µl of 1 mg/ml IP every other day, day -1 to 15, DEX daily days 0-6, day 18), the “maintenance of host spleen cells, CD4+ T cells, and Treg cells” value was “maintained host spleen cells, CD4+ T cells, and Treg cells”. For the same substance, in assay [2] (versus PBS controls), the Body weight loss entry is “not severe and was significantly less than in PBS controls”. Also, the IL-2 concentration in assay [3] (48 hr, protein conc. 5 (µg/ml; Fc controls in molar equiv.) + IL-27 10 ng/ml) is 5784.11 pg/mL; in assay [3] (48 hr, protein conc. 10 (µg/ml; Fc controls in molar equiv.) + IL-27 10 ng/ml, listed as hIL-27RA) it was 5774.94 pg/mL and 5333.6 pg/mL; in assay [3] (72 hr, protein conc. 5 (µg/ml; Fc controls in molar equiv.) + IL-27 10 ng/ml), 1869.62 pg/mL; in assay [3] (72 hr, protein conc. 10 (µg/ml; Fc controls in molar equiv.) + IL-27 10 ng/ml, listed as hIL-27RA), 28607.63 pg/mL and 17481.17 pg/mL. In addition, the “inhibition (partial block) of the ability of mouse IL-27 to inhibit IL-2 production” value in assay [3] (naïve CD4 T cells) was about 50%.

The values above are taken from patent publication US20100092465A1, “TREATMENT OF GRAFT-VERSUS-HOST DISEASE” (priority 2006, published 2010).
